In US20220048967A1 (published 2022):

T1: human gastric inhibitory peptide receptor (GIPR) (human, UniProt P48546 22-466)
T1 sequence (looked up): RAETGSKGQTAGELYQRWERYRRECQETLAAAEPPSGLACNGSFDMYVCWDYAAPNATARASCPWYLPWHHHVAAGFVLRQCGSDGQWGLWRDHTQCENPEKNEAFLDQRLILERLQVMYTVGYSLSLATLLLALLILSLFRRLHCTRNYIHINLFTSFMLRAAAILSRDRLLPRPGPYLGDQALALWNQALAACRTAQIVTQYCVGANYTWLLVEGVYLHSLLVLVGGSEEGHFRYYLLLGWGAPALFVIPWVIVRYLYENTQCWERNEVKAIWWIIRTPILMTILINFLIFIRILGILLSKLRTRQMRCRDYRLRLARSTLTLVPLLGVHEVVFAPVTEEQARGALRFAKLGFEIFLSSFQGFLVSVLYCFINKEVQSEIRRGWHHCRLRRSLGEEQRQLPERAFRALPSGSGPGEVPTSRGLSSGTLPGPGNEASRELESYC


Legend:
Assay in all cases: cell-based or functional assay
[1] = target: human GLP-1 receptor (GLP-1R) (human, UniProt P43220 24-463)
[2] = target: T1, human gastric inhibitory peptide …
[3] = target: Pro-Link-tagged Human GLP-1R (human, UniProt P43220 24-463)
[4] = target: human GLP-1 receptor (human, UniProt P43220 24-463)
Wherever hGIPR cAMP EC50 ratio is given: reference of the scale not given here.
Wherever hGLP1R B-Arrestin2 % Top is given: reference of the scale not given here.
Wherever hGLP1R GTPgS % Top is given: reference of the scale not given here.
Wherever hGLP1R cAMP EC50 ratio is given: reference of the scale not given here.

| Binder | hGLP1R cAMP EC50 ratio [1] | hGLP1R cAMP Rel EC50 [1] | hGIPR cAMP EC50 ratio [2] | hGIPR cAMP Rel EC50 [2] | hGLP1R B-Arrestin2 % Top [3] | hGLP1R B-Arrestin2 Rel EC50 [3] | hGLP1R GTPgS % Top [4] | hGLP1R GTPgS Rel EC50 [4] |
| --- | --- | --- | --- | --- | --- | --- | --- | --- |
| XXEGTFTSDYSIXLDXKAQXEFIEYLIAGGPSSG (D-Tyr1; Aib2; αMeL13; Orn16; K17 conjugated to (2-[2-(2-Amino-ethoxy)-ethoxy]-acetyl)2-(γ-Glu)-CO-(CH2)18-CO2H; Aib20; C-terminal amide) | 0.172 ratio | 0.186 nM | 0.704 ratio | 0.117 nM | – | – | – | – |
| XXEGTFTSDYSIXLDXKAQXEFIEYLIAGGPSSG (D-Tyr1, Aib2, αMeL13, Orn16, K17 conjugated to (2-[2-(2-Amino-ethoxy)-ethoxy]-acetyl)2-(γ-Glu)-CO-(CH2)18-CO2H, Aib20, C-terminal amide (NH2)) | – | – | – | – | 23% | 9.9 nM | 63.7% | 0.428 nM |
| YXEGTFTSDYSIXLDKKAQXEFIEXLIAGGPSSGAPPPS (Aib2; αMeL13; K17 conjugated to (2-[2-(2-Amino-ethoxy)-ethoxy]-acetyl)2-(γ-Glu)-CO-(CH2)18-CO2H; Aib20; αMeY25; C-terminal amide) | 0.386 ratio | 0.0641 nM | 5.85 ratio | 0.0179 nM | – | – | – | – |
| XXEGTFTSDYSIXLDKKAQXEFIEXLIAGGPSSGAPPPS (D-Tyr1, Aib2, αMeL13, K17 conjugated to (2-[2-(2-Amino-ethoxy)-ethoxy]-acetyl)-(γ-Glu)-CO-(CH2)18-CO2H, Aib20, αMeY25, C-terminal amide (NH2)) | – | – | – | – | 32.9% | 9.81 nM | 69.1% | 0.379 nM |
| XXEGTFTSDYSIXLDKKAQXEFIEXLIAGGPSSGAPPPS (D-Tyr1; Aib2; αMeL13; K17 conjugated to (2-[2-(2-Amino-ethoxy)-ethoxy]-acetyl)2-(γ-Glu)-CO-(CH2)16-CO2H; Aib20; αMeY25; C-terminal amide) | 0.169 ratio | 0.19 nM | 1.76 ratio | 0.0468 nM | – | – | – | – |
| XXEGTFTSDYSIXLDKKAQXEFIEXLIAGGPSSGAPPPS (D-Tyr1, Aib2, αMeL13, K17 conjugated to (2-[2-(2-Amino-ethoxy)-ethoxy]-acetyl)2-(γ-Glu)-CO-(CH2)16-CO2H, Aib20, αMeY25, C-terminal amide (NH2)) | – | – | – | – | 34.7% | 21.8 nM | 67.1% | 0.345 nM |
| XXEGTFTSDYSIXLDKKAQXEFIEXLIAGGPSSGAPPPS (D-Tyr1; Aib2; αMeL13; K17 conjugated to (2-[2-(2-Amino-ethoxy)-ethoxy]-acetyl)-(γ-Glu)-CO-(CH2)18-CO2H; Aib20; αMeY25; C-terminal amide) | 0.0741 ratio | 0.365 nM | 0.68 ratio | 0.0781 nM | – | – | – | – |
| YXEGTFTSDYSIXLDKKAQXEFIEXLIAGGPSSGAPPPS (Aib2, αMeL13, K17 conjugated to (2-[2-(2-Amino-ethoxy)-ethoxy]-acetyl)2-(γ-Glu)-CO-(CH2)18-CO2H, Aib20, αMeY25, C-terminal amide (NH2)) | – | – | – | – | 70.6% | 6.66 nM | 89.7% | 0.289 nM |
| XXEGTFTSDYSIXLDXKAQXAFVEYLIEGGPSSGAPPPS (D-Tyr1; Aib2; αMeL13; Orn16; K17 conjugated to (2-[2-(2-Amino-ethoxy)-ethoxy]-acetyl)2-(γ-Glu)-CO-(CH2)18-CO2H; Aib20; C-terminal amide) [Example 360] | 0.171 ratio | 0.145 nM | 0.53 ratio | 0.197 nM | – | – | – | – |
| XXEGTFTSDYSIXLDKKAQXAFIEXLIAGGPSSGAPPPS (D-Tyr1, Aib2, αMeL13, K17 conjugated to (2-[2-(2-Amino-ethoxy)-ethoxy]-acetyl)2-(γ-Glu)-CO-(CH2)16-CO2H, Aib20, αMeY25, C-terminal amide (NH2)) [Example 376] | – | – | – | – | 25.6% | 12.3 nM | 72.6% | 0.326 nM |
| XXEGTFTSDYSIXLDXKAQXEFIEXLIAGGPSSGAPPPS (D-Tyr1; Aib2; αMeL13; Orn16; K17 conjugated to (2-[2-(2-Amino-ethoxy)-ethoxy]-acetyl)2-(γ-Glu)-CO-(CH2)16-CO2H; Aib20; αMeY25; C-terminal amide) [Example 375] | 0.178 ratio | 0.152 nM | 1.13 ratio | 0.0471 nM | – | – | – | – |
| XXEGTFTSDYSIXLDKKAQXAFIEXLIAGGPSSGAPPPS (D-Tyr1, Aib2, αMeL13, K17 conjugated to (2-[2-(2-Amino-ethoxy)-ethoxy]-acetyl)-(γ-Glu)-CO-(CH2)18-CO2H, Aib20, αMeY25, C-terminal amide (NH2)) [Example 373] | – | – | – | – | 22.9% | 9.54 nM | 65.6% | 0.336 nM |
| XXEGTFTSDYSIXLDXKAQXEFIEYLIAGGPSSGAPPPS (D-Tyr1, Aib2, αMeL13, Orn16, K17 conjugated to (2-[2-(2-Amino-ethoxy)-ethoxy]-acetyl)2-(γ-Glu)-CO-(CH2)16-CO2H, Aib20, C-terminal amide (NH2)) | – | – | – | – | 21.3% | 47.9 nM | 68.9% | 0.495 nM |
| XXEGTFTSDYSIXLDXKAQXEFIEYLIAGGPSSGAPPPS (D-Tyr1; Aib2; αMeL13; Orn16; K17 conjugated to (2-[2-(2-Amino-ethoxy)-ethoxy]-acetyl)2-(γ-Glu)-CO-(CH2)16-CO2H; Aib20; C-terminal amide) | 0.299 ratio | 0.108 nM | 0.109 ratio | 0.0757 nM | – | – | – | – |
| XXEGTFTSDYSIXLDXKAQXAFIXYLIAGGPSSGAPPPS (D-Tyr1; Aib2; αMeL13; Orn16; K17 conjugated to (2-[2-(2-Amino-ethoxy)-ethoxy]-acetyl)2-(γ-Glu)-CO-(CH2)16-CO2H; Aib20; D-Glu24; C-terminal amide) [Example 363] | 0.146 ratio | 0.208 nM | 0.835 ratio | 0.145 nM | – | – | – | – |
| XXEGTFTSDYSIXLDXKAQXAFIEXLIAGGPSSGAPPPS (D-Tyr1, Aib2, αMeL13, Orn16, K17 conjugated to (2-[2-(2-Amino-ethoxy)-ethoxy]-acetyl)2-(γ-Glu)-CO-(CH2)16-CO2H, Aib20, αMeY25, C-terminal amide (NH2)) [Example 377] | – | – | – | – | 16.7% | 5.32 nM | 68.4% | 0.356 nM |
